Experimental data as given in the RNAGym collection of RNA variant scans (doi:10.1073/pnas.2313332121).

B1: TPR t1 (parent)
chain: GACCAAUCUGCCCUCAGAGCUCGAGAACAUCUUCGGAUGCAGAGGAGGCAGGCUUCGGUGGCGCGAUAGCGCCAACGUCCUCAACCUCCAAUGCAUCCCACCACAUGAUGAUGCCUGAAGAGCCUUGGUUUUUUG

Variants of: B1
Test: polymerase ribozyme fitness, log enrichment relative to wild type (log ratio); higher = more active; in vitro selection for triplet polymerase activity
Summary of the method: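 Mutant libraries for each subunit of a heterodimeric triplet polymerase ribozyme were made by PCR and then transcribed. Each library underwent one round of in vitro selection in triplicate: annealing with a biotinylated primer, the partner subunit and triplets, frozen incubation at −7 °C, gel excision of extended constructs, streptavidin-bead capture and RT-PCR. Input and output libraries were Illumina-sequenced, and only genotypes with ≥10 input reads and ≥1 read per output were kept. Fitness is the logarithm, base 2, of genotype enrichment over wild-type enrichment, computed from inverse-variance-weighted replicate averages.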

First: GACCAAUCUGCCCUCAGAGCUAGAGAACAUCUUCGGAUGCAGAGGAGGCAGGCUUCGGUGGCGCGAUAGCGCCAACGUCCUCGACCUCCAAUGCAACCCACCACAUGAUGAUGACUGAAGAGCCUUGGUUUUUUG
Second: GACCAAUCUGCCCUCAGAGCGCGAGAACAUCUUCGGAUGCAGAGGAGGCAGGCUUCGGUGGCGCGAUAGCGCCAACGUCCUCAACCUCCAAUGCAUCCCACCACAUGAUGAUGCCUAAAGAGCCUUGGUUUUUUG
The “polymerase ribozyme fitness (log ratio)” value of the first is lower: -5.87 for the first, -2.55 for the second.

First: GACCAAUCUGCCCUCAGAGCUAGAGAACAUCUUCGGAUGCAGAGGAGGCAGGCUUCGGUCGCGCGAUAGCGCUAACGUCCUCAACCUCCAAUGCAUCCCACCACAUGAUGAUGCCUGAAGAGCCUUGGUUUUUUG
Second: GACCAAUCUGCCCUCAGAGCUAGAGAACAUCUUCGGAUGCAGAGGAGGCAGUCUUCGGUGGCGCGUUAGCGCCAACGUCCUCAACCUCCAAUGCAUCCCACCACAUGAUGAGGCCUGAAGAGCCUUGGUUUUUUG
The “polymerase ribozyme fitness (log ratio)” value of the first is higher: -5.64 for the first, -5.88 for the second.

Compared with GACCAAUCUGCCCUCAGAGCUAGAGAACAUCUUCGGAUGCAGACGUGGCAGGCUUCGGUGGCGCGAUAGCGCCAACGUCCUCAACCUCCAAUGCAUCCCAACACAUGAUGAUGCCUGAAGCGCCUUGGUUUUUUG, GACCAAUCUGCCCUCAGAGCUAGAGAACAUCUUCGAAUGCAGAGGAGGCAGGCUCCGGUGGCGCGAUAGCGCCAACGUCCUCAACCUCCAAUGCAACCCACCACAUGAUGUUGCCUGAAGAGCCUUGGUUUUUUG is lower in “polymerase ribozyme fitness (log ratio)” value: -4.64 for the first, -6.03 for the second.

Compared with GACCAAUCUGCCCUCAGAGCUAGAGAACAUCUUCGGAUGCAGAGGAGGCAGGGUUCGGUGGCGCGAUAGCGCCAACGUCCUCAACCUCCAAUGCAUCCCACCACAUGAUGAUGCCUGAAGAGCCUUGGUUUUUUG, GACCAAUCUGCCCUCAGAGCUAGAGAACAUCUUCGGAUGCAGCGGAGGCAGGCUUCGGUGGCGCGAUAGCGCCAACGCCCUCCACUUCCAAUGCAUCCCACCACAUGAUGAUACCUGAAGAGCCUUGGUUUUUUG is lower in “polymerase ribozyme fitness (log ratio)” value: -5 for the first, -5.47 for the second.

Going from GACCAAUCUGCCCUCAGAGCUAGAGAACAUCUUCGGAUGCAGAGGAGGCAGGCUUCGGUGGCGCGAUAGCGCAAACGUCCUCAACCUCCAAUGCAUCCCACCACAUGAUGAUGCCUGAAGAGCCUUGGUUUUUUG to GACCAAUCUGCCCUCAGAGCUAGAGAACAUCUUCGGAUGCAGAGGAGGCAGACUUCGGUAGCGCGAUAGCGCCAACGUCCUCAACCUCCAAUGCAUCCCACCACAUGAUGAUGCCUUAAGAGUCUUGGUUCUUUG, the “polymerase ribozyme fitness (log ratio)” value falls from -4.25 to -6.69.

Compared with GACCAAUCUGCCCUCAGAGCUAGAGAACAUCUUCGGAUGCAGAGGAGGCAGGCUUCGGUGGCGCGAUAGCGGCAACGUCCUCGACCUCCAAUGCAUCCCACCACAUGAUGAUGCAUGAAGAGCCUUGGUUUUUUG, GACCAAUCUGCCCUCAGAGCUAGAGAACAUCUUCGGAUGCAGAGGAGGCAGGCUUGGGUGGCGCGAUAGCGCCAACGUCCUCAACCUCCAAUGCAUCCCACCACAUGAUGAUGCCUGAAGAGCCUUGGUUUUUUG is higher in “polymerase ribozyme fitness (log ratio)” value: -5.56 for the first, -4.66 for the second.

Compared with GACCAAUCUGCCCUCAGAGCUAGAGAACAUGUUCGGAUGCAGAGGAGGCAGGCUUCGGUUGCGCGAUAGCGCCAACGUCCUCAACCUCCAAUGCAACCCACCACAUGAUGAUGCCUGAAGAGCCUUGGUUUUUUG, GACCAAUCUGCCCUCAGAGCGCGAGAACAUCUUCGGAUGCAGAGGAGGCAGGCUUCGGUGGCCCGAUAGCGCCAACGACCUCAACCUCCAAUGCAUCCCACCACAUGAUGAUGCUUGAUGAGCCUUGGUAUUUUG is higher in “polymerase ribozyme fitness (log ratio)” value: -6.4 for the first, -5.59 for the second.

Going from GACCAAUCUGCCCUCAGAGCUAGAGAACAUCUUCGGAUGGAGAGGAGGCAGGCUUCGCUAGCGCGAUAGCGCCAACGUCCUCAACCUCCAAUGCAUCCCACCACAUGAUGAUGCCUGAAGAGCCUUGGUUUUUUG to GACCAAUCUGCCCUCAGAGCGCGAGAACAUCUUCGGAUGCAGAGGAGGCAGGCUUCGGUGGCGCGAUAGCGCCAACGUCCUCAACCCCCAAUGCAUCCCACCACAUGAUGAUGUCUGAAGAGCCUUGGUUUUUUG, the “polymerase ribozyme fitness (log ratio)” value rises from -4.83 to -1.41.

Going from GACCAAUCUGCCCUCAGAGCUAGAGAACAUAUUCGGAUGCAGAGGAGGCAGGCUUCGGUGGCGGGAUAGCGCCAACGUCCUCAACCUCCAAUGCAUUCCACCACAUGAUGAUGCAUGAAGAGCCUUUGGGUUUUG to GACCAAUCUGCCCUCAGAGCGCGAGAACAUCUUCGGAUGCAGAGGAGGCAGGCUUCGGUGGCGCGAUAGCGCCAACGUCCUCAACCUCCAAUACAUCCCACCACAUGAUGAUGUCUGAAGAGCCUUGGUUUUUUG, the “polymerase ribozyme fitness (log ratio)” value rises from -6.15 to -3.41.

Compared with GACCAAUCUGCCCUCAGAGCUAGAGAACAUCUUCGGAUGCAGAGGAGGCAGGCUUCGGUGGCGCGAUAGCGCCAACGUCCUCAACCUCCAAUGCAUCCCAUCACACGAUGAUGCCUGAAGAGCCUUGGUUUUUUG, GACCAAUCUGCCCUCAGAGCUAGAGAACAUCUUCGGAUGCAGAGGAGGCAGGCUUCUGUGGCGCGAUAGCGCCAACGUCCUCAACCUCCAAUGCAUCCCACCACAAGAUGAUGCCUGGAGAGCCUUGGUUUUCUG is higher in “polymerase ribozyme fitness (log ratio)” value: -5.01 for the first, -3.51 for the second.

In the case of GACCAAUCUGCCCUCAGAGCUAGAGAACAUCUUCGGAUGCAGAGGAGGCAGGCUUCGGUGGCGCGAUAGCGCCAACGUCCUCAACCUCCAAUUCAUCCCACCACAUGAUGAUGCCUGAAGAGCCUUGGUUUUUUG, the “polymerase ribozyme fitness (log ratio)” value is reported as -6.27.
